Measurements: patent EP1052288A1, “Complex for transferring an anionic substance of interest into a cell” (TRANSGENE S.A., priority 1999, dated 2000)
Ends that are not written are not given here.

What was measured:
[1] = Sizes of complexes by quasi-elastic light scattering; type: physicochemical; conditions: complexes (-/+) [1:4], 6 µg DNA (pTG11033), 500 µl; for Sizes in ultrafiltrated serum: ultrafiltrated foetal calf serum
Protocol: Sizes of complexes prepared with a plasmid DNA (PTG11033; see EP-A 890 32, 9.6 kb) and the C1qA (4-26) peptide (see Table I) were evaluated. Complexes were formulated either in 5% glucose or in ultrafiltrated foetal calf serum (YM10 Amicon membrane). Formulation was made in 500 µl buffer, with 6 µg DNA and the quantity of peptide necessary to form a [1:4], [-:+] complex. As a control a polylysine SV40 NLS peptide was used. […] When oxidized, the dimerized C1qA peptide could form even smaller complexes, whatever the formulation buffer used. The reasonable sizes obtained in ultrafiltrated serum with C1qA peptides is an advantage for the use of this peptide rather than polylysine derivatives.
Complexes (-/+):[1:4], 6 µg DNA, 500 µl.
Size measures: quasi-elastic light scattering, COULTER N4+. [formula] [formula] [formula] [formula]

[2] = test system: plasmid pTG11033; test: Gel retardation assay (agarose gel electrophoresis); type: binding
Protocol: Gel retardation assay was performed with C1qA (4-26) in several buffers: PBS, TBS, 5% glucose, or ultrafiltrated serum (YM10 Amicon membrane). DNA and peptides have been mixed at charge ratios [-/+] of [1:4], [1:1] and [1:0.2].

SP-1052 oxidized: When oxidized, the dimerized C1qA peptide (CRAPDGKKGEAGRPGRRGRPGLK; also: oxidized disulfide dimer; UniProt P02745 26-48, looked up, fragment)
Sizes in 5% glucose [1]: 200 nm
Sizes in ultrafiltrated serum [1]: 300 nm

SP-1052: C1qA (4-26) peptide, complexed with plasmid DNA (CRAPDGKKGEAGRPGRRGRPGLK; also: complexed with plasmid DNA; UniProt P02745 26-48, looked up, fragment)
retardation in DNA ([2]; charge ratio [-/+] [1:1]): significative retardation
association of DNA to the peptides ([2]; charge ratio [-/+] [1:4], PBS, TBS, 5% glucose or ultrafiltrated serum, absence of visible band with ethidium bromide): strong association of DNA to the peptides
Sizes in 5% glucose [1]: 1µm
Sizes in ultrafiltrated serum [1]: 300-500 nm
